# Results taken from the supplement of paper PMC6755084.
# Test system: F1*sub RNA substrate (template-directed ligation)
# Assay: fraction ligated after 30 min (ligated reads / total reads); higher = more ligase activity; sequences stand for … in GAGACCGCAACTGAAAAGTTGT…AGTTCTGCACGTAGAAGCAAAAGGC
# Settings: 42 °C
# Method in brief: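 Templates from an oligo pool were PCR-amplified, transcribed with T7 and gel-purified to give the ribozyme variants. Ligated and unligated products were separated on gel, reverse transcribed using barcoded primers, and read on a MiSeq. A quality filter of ≥20 was applied to core bases. Fraction ligated was taken as ligated reads as a share of all reads per variant.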
row,Sequence,fraction ligated
1,TATACTTGTGTAAGACACTTTGATGGGTTGA [3d837],0.81
2,TATCACGTGTAAGACACTTTGGATGGGTTGA [3d1295],0.829
3,TATACTGTCTAAGACACTTTGGATGGGTTGA [3d781],0.651
4,TATCACTTGTCGAAGACCTTTGGATGGGTTG [3d1949],0.79
5,TTCACTTGTCTAAGACCTTTGGATGGGTTGA [3d407],0.578
6,TATCTGTCGTAAGACACTTTGGATGGGTTGA [3d739],0.775
7,TATCACTTTCGTAAGAACTTTGGATGGGTTG [3d1546],0.868
8,TATCACTTGTCGTAAGACACTTGTGGGTTGA [3d2239],0.00905
9,TATCACTTTCGTAAGCACTTTGATGGGTTGA [3d1533],0.784
10,TATACTTTCGAAGACACTTTGGATGGGTTGA [3d798],0.451
11,TTCCTTGTCGTAAGAACTTTGGATGGGTTGA [3d307],0.765
12,TATCCTTGTCGAAGACACTTTGGATGGGTTG [3d1041],0.783
13,TATCACTTTCGTAAGACACTTTGATGGGTTA [3d1572],0.0837
14,ATCATTGTCGTAAGACACTTTGGATGGGTTG [3d104],0.703
15,ATCACTTGTCGTAAACATTTGGATGGGTTGA [3d213],0.777
16,TATCCTTGTCGTAAGCACTTTGGATGGGTTG [3d1074],0.768
17,TATCACTTTCGTAAGAACTTTGGAGGGTTGA [3d1543],0.126
18,TATCACTTGTCGAAGACACTTTGGAGGTTGA [3d1974],0.0837
19,TATCACTGTCGTAAGCACTTTGGATGGGTTA [3d1416],0.752
20,TATCCTTGTCGTAAACACTTGGATGGGTTGA [3d1058],0.721
21,TTCACTTGTCGTAGACATTTGGATGGGTTGA [3d434],0.742
22,TATACTTGTCGAAGACACTTTGGATGGGTTG [3d869],0.61
23,TATCACTTGTCGTAAGACATTTGATGGGTTA [3d2218],0.0152

row,Sequence,fraction ligated
1,TATCTTGTCGTAAGACATTTGGATGGGTTGA [3d750],0.806
2,TATACTTGTCGAAGACATTTGGATGGGTTGA [3d862],0.762
3,TATACTTGTCGTAAACACTTTGGAGGGTTGA [3d889],0.0111
4,ATCCTTGTCGTAAGACACTTTGATGGGTTGA [3d80],0.71
5,TATCACTTGTCAAGAACTTTGGATGGGTTGA [3d1813],0.839
6,TATCATTGTGTAAGAACTTTGGATGGGTTGA [3d1177],0.856
7,TATCCTTTCGTAAACACTTTGGATGGGTTGA [3d972],0.795
8,ATCACTTGTCGTAAGAACTTTGGATGGGTTA [3d237],0.351
9,TATCACTTGTTAAGACATTTGGATGGGTTGA [3d1710],0.835
10,ATCACTGTCGTAAGACACTTTGGATGGGTTG [3d123],0.74
11,TTCACTGTCGTAAGACACTTTGGTGGGTTGA [3d350],0.0639
12,TATCACTTCGTAAGCACTTTGGATGGGTTGA [3d1316],0.797
13,TATCATTGTCTAAACACTTTGGATGGGTTGA [3d1189],0.785
14,TACACTTGTCGTAAACACTTTGGATGGTTGA [3d679],0.101
15,TATCACTTGTCTAAGACCTTTGGTGGGTTGA [3d1866],0.227
16,ATCACTTGCGTAAGACACTTTGGATGGGTTA [3d154],0.567
17,ATCACTTTCGTAAGACACTTTGATGGGTTGA [3d134],0.401
18,TTCACTTGTCGAAACACTTTGGATGGGTTGA [3d417],0.0407
19,TATCCTTGTCGTAAGCACTTTGATGGGTTGA [3d1069],0.754
20,TTCACTTTCGTAAGACACTTTGGATGGGTTGA [2d29],0.501
21,TACACTTGTCGTAAGACACTTTGGATGGGTT [3d736],0.00884
22,TATCACTTGTCTAAGACATTTGGTGGGTTGA [3d1873],0.0508
23,TATCACTTGTCGTAGACACTTGGATGGTTGA [3d2039],0.095

row,Sequence,fraction ligated
1,TATCACTGTCGAAGAACTTTGGATGGGTTGA [3d1375],0.846
2,TATCACTGTCGTAAGACACTTGGATGGTTGA [3d1444],0.382
3,TATCACTTGTGTAAGACACTTTGATGGGTTA [3d1797],0.0515
4,TATCCTTGTCTAAGACACTTTGGTGGGTTGA [3d1024],0.19
5,TTCTTGTCGTAAGACACTTTGGATGGGTTGA [3d277],0.765
6,TATCATGTCGTAAGACACTTTGGAGGGTTGA [3d1136],0.0722
7,TATCACTTGTCGTAAACATTTGGATGGGTTG [3d2080],0.826
8,TATCACTTGTCGTAACACTTTGGAGGGTTGA [3d1999],0.0382
9,TATCACTTGTCGTAAACACTTTGTGGGTTGA [3d2089],0.0322
10,ATCACTTGTCGTAAGACATTTGGTGGGTTGA [3d248],0.00393
11,TATCACTTGTCGTAAGACATTTGGTGGGTTA [3d2222],0.00331
12,TATCACTTGTCTAAGACACTTGGATGGGTTA [3d1883],0.701
13,TACACTTGTCGTAAGACACTTTGGAGGGTTA [3d732],0.0323
14,TATCACTTTCGTAAAACTTTGGATGGGTTGA [3d1519],0.823
15,TACACTTGGTAAGACACTTTGGATGGGTTGA [3d601],0.0847
16,TTCACTTGTCGTAGACACTTTGGATGGGTTGA [2d34],0.798
17,TATCACTTTGTAAGACACTTTGATGGGTTGA [3d1473],0.793
18,TATCACTTGTCGTAAACACTTTGGATGGTTG [3d2102],0.17
19,TTCACTTTCGTAAACACTTTGGATGGGTTGA [3d359],0.0493
20,TATCACTTTCGTAAGCCTTTGGATGGGTTGA [3d1530],0.774
21,TATACTGTCGTAAGACACTTTGGATGGGTTA [3d794],0.0511
22,TATCACTTGTCGTAGACACTTTGGTGGGTTG [3d2051],0.101
23,TATCACTTGTCTAAGACACTTTGGATGGGTTGA [1d11],0.818

row,Sequence,fraction ligated
1,TATCATTGTCGTAGACACTTGGATGGGTTGA [3d1220],0.752
2,TTCACTTGTCGAAGCACTTTGGATGGGTTGA [3d418],0.287
3,TTACTTGTCGTAAGACACTTTGGTGGGTTGA [3d293],0.031
4,TCACTTGTCGTAAGACACTTTGGTGGGTTGA [3d19],0.0723
5,TATCACTGTGTAAGACACTTGGATGGGTTGA [3d1351],0.821
6,TATCCTTGTCTAAGACATTTGGATGGGTTGA [3d1021],0.793
7,TATACTTGTCGTAGACACTTTGATGGGTTGA [3d877],0.36
8,TATCACTTGTCGTAAGACTTTGGTGGGTTGA [3d2109],0.0656
9,ATCACTTGTCGTAAGAACTTTGGTGGGTTGA [3d234],0.0239
10,TTCACTTGTCTAAGACACTTTGGTGGGTTGA [3d411],0.035
11,TATCACTTTCGTAGCACTTTGGATGGGTTGA [3d1508],0.826
12,TACACTTGTCGTAAGACATTGGATGGGTTGA [3d707],0.239
13,TATCACTTGCGTAAGAATTTGGATGGGTTGA [3d1659],0.835
14,TATCATTGTCGAAGAACTTTGGATGGGTTGA [3d1204],0.809
15,TATCACGTCGTAAGACATTTGGATGGGTTGA [3d1303],0.807
16,TTCACTTGTCGTAAACATTTGGATGGGTTGA [3d444],0.804
17,TATCACTTGTGTAAAACTTTGGATGGGTTGA [3d1744],0.856
18,TATCACTTGTCGTAAACATTGGATGGGTTGA [3d2074],0.804
19,TATACTTGTCGTAAGAATTTGGATGGGTTGA [3d903],0.769
20,TATCCTTGTCGTAGACACTTTGGATGGTTGA [3d1052],0.0426
21,TATCACTGTCGTAGACACTTTGATGGGTTGA [3d1392],0.787
22,ACCTTGTCGTAAGACACTTTGGATGGGTTGA [3d25],0.616
23,TTCACTGTCGTAAGACACTTTGATGGGTTGA [3d349],0.653

row,Sequence,fraction ligated
1,TATCACTTGTGTAAGACACTTTGATGGTTGA [3d1796],0.0289
2,TATCACTTGCGTGACACTTTGGATGGGTTGA [3d1626],0.829
3,ATCCTTGTCGTAAGACACTTTGGATGGTTGA [3d83],0.138
4,TTCACTTGTCGTAGACACTTTGGAGGGTTGA [3d438],0.149
5,TATCCTTGTTAAGACACTTTGGATGGGTTGA [3d1000],0.793
6,TACACTTGCGTAAGACACTTGGATGGGTTGA [3d610],0.0197
7,TTCACTGTCGTAGACACTTTGGATGGGTTGA [3d342],0.775
8,TATCATTGTCGTAAGACCTTTGGATGGGTTG [3d1261],0.778
9,ATACTTGTCGTAGACACTTTGGATGGGTTGA [3d54],0.0939
10,ATCACTTGTCGTAAGACACTTTGGAGGGTTG [3d272],0.094
11,TATCACTTGTCGGACACTTTGGATGGGTTGA [3d1902],0.785
12,TTCACTTGTCGTAGCACTTTGGATGGGTTGA [3d431],0.735
13,ATCACTTGTCGTAAGACACTTTGGAGGTTGA [3d270],0.0103
14,TATCATTGTGTAAGACACTTTGATGGGTTGA [3d1181],0.308
15,TATACTTGCGTAAGACACTTTGGATGGGTTA [3d826],0.0217
16,TATACTTGTCGTAAACACTTTGGATGGGTTG [3d892],0.0953
17,TATCACTTGTCGTAGACACTTGGATGGGTTGA [2d227],0.803
18,TATCACTTGTCGTAAGCACTTTGATGGGTTG [3d2140],0.677
19,TATCATTGTCTAAGACATTTGGATGGGTTGA [3d1193],0.778
20,TACACTTGTCGTAAAACTTTGGATGGGTTGA [3d672],0.0463
